Assay results taken from patent publication US5750335.

Target: T1, MutS (Salmonella typhimurium) (UniProt P0A1Y0)
T1 sequence: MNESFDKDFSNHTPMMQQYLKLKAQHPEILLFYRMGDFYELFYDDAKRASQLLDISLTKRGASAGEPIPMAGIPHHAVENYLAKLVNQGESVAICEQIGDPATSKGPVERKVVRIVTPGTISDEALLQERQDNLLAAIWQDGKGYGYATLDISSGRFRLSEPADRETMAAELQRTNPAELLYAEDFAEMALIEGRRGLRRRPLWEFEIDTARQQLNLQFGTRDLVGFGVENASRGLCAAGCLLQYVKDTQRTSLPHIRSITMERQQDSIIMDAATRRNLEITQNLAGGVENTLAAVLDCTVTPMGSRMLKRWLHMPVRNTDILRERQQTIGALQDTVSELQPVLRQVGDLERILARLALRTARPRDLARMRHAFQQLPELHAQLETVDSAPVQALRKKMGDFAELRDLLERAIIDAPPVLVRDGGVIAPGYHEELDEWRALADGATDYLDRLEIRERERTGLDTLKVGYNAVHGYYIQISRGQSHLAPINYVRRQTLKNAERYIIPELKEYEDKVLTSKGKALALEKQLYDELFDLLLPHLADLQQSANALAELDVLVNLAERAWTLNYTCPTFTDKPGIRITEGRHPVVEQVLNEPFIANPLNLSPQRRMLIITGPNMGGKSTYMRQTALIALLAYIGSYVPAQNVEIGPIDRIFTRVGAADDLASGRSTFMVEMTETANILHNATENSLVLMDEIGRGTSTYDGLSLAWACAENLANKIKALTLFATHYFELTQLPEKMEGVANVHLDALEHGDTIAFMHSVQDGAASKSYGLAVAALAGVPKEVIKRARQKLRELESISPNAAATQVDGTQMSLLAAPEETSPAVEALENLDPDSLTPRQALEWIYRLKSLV
Experiment: pulldown
Conditions: on ice

| Substance | binding signal (fold over homoduplex) (immunoprecipitation with anti-MutS, 1 ug lambda competitor DNA) | binding signal (fold (reference)) (homoduplex control precipitated 9.6 fold less, competitor DNA) |
| --- | --- | --- |
| 1 KB AvaII-BglII M13mp8 C-A heteroduplex | 9.6 |  |
| 1 KB AvaII-BglII M13mp8 homoduplex |  | 1 |
